Results on 1 protein are retold here after FireProtDB (doi:10.1002/pro.5560040510).

The conditions of the data set: Bos taurus, glycine 40 mM, reversible: no, whole UniProt chain shown; for Tm / unfolding enthalpy (van 't Hoff): Thermal, Absorbance.

B1: Adrenodoxin, mitochondrial wild type, P00257 (protein)
chain: MAARLLRVASAALGDTAGRWRLLARPRAGAGGLRGSRGPGLGGGAVATRTLSVSGRAQSSSEDKITVHFINRDGETLTTKGKIGDSLLDVVVQNNLDIDGFGACEGTLACSTCHLIFEQHIFEKLEAITDEENDMLDLAYGLTDRSRLGCQICLTKAMDNMTVRVPDAVSDARESIDMGMNSSKIE
In the case of B1, the Tm was found to be 47.5 °C (pH 6.5); 53.7 °C (pH 7.4); 53.5 °C (pH 8.5); 54 °C (pH 9.5); 53.2 °C (pH 10.5). Also, the “unfolding enthalpy (van 't Hoff)” value is, setting by setting: (pH 6.5) 90 kcal/mol; (pH 7.4) 91.6 kcal/mol; (pH 8.5) 82 kcal/mol; (pH 9.5) 79.2 kcal/mol; (pH 10.5) 64.6 kcal/mol. Where the note is “pH 8.5, 25 °C, Urea, DSC”, the unfolding free energy was found to be 5.02 kcal/mol.

As a reminder, the Tm is the temperature at which the thermal transition is half complete.
